Measured values published in patent US20250171562A1.

Biological target: mixture of three Der p 2 specific recombinant human IgE clones H10, H12, P4E (human) (UniProt P01854)
Assay: RBL-SX38 IgE displacement, FACS

mixture of three Der p 2 specific recombinant human IgE clones H10, H12, P4E (human), sequence (P01854 other isoform, or with tags, fused parts or gaps): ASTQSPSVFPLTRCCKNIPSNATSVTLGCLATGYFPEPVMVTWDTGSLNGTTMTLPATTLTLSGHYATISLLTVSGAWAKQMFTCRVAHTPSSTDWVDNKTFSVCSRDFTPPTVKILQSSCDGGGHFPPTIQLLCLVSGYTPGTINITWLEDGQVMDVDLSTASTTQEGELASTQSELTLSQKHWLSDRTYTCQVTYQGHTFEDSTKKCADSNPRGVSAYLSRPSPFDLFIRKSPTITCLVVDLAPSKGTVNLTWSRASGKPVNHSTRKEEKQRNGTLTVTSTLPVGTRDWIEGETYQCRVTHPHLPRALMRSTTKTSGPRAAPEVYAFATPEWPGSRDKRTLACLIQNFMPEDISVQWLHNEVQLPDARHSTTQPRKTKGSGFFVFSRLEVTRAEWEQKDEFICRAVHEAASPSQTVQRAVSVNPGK

B1: CIgG4F2A1(G4S)1 (Fc fusion)
chain 1: GPPCPPCPAPEFLGGPSVFLFPPKPKDTLMISRTPEVTCVVVDVSQEDPEVQFNWYVDGVEVHNAKTKPREEQFNSTYRVVSVLTVLHQDWLNGKEYKCKVSNKGLPSSIEKTISKAKGQPREPQVYTLPPCQEEMTKNQVSLWCLVKGFYPSDIAVEWESNGQPENNYKTTPPVLDSDGSFFLYSRLTVDKSRWQEGNVFSCSVMHEALHNHYTQKSLSLSLGKGGGGSDVQLQESGGGLVQAGGSLKLSCAASGGSLSRYDMGWFRQAPGKEREFVARISWSGDTKYYADAVEGRFAISRDNAQNTVYLQMNSLKPEDTAVYYCAVALYGNRGYYDVNTYSYWGQGTRVTVS
chain 2: GPPCPPCPAPEFLGGPSVFLFPPKPKDTLMISRTPEVTCVVVDVSQEDPEVQFNWYVDGVEVHNAKTKPREEQFNSTYRVVSVLTVLHQDWLNGKEYKCKVSNKGLPSSIEKTISKAKGQPREPQVCTLPPSQEEMTKNQVSLSCAVKGFYPSDIAVEWESNGQPENNYKTTPPVLDSDGSFFLVSRLTVDKSRWQEGNVFSCSVMHEALHNHYTQKSLSLSLGKGGGGSEVQLLESGGGLVQPGGSLRLSCAASGFTFGNYDMAWVRQAPGKRPEWVSSIDTGGDITHYADSVKGRFTISRDNAKNTLYLQMNSLRPEDTAVYWCATDEEYALGPNEFDYYGQGTLVTVSS
Max effect/effect 1 µM: 11%

B2: NIgG4F2A1(G4S)3 (Fc fusion)
chain 1: DVQLQESGGGLVQAGGSLKLSCAASGGSLSRYDMGWFRQAPGKEREFVARISWSGDTKYYADAVEGRFAISRDNAQNTVYLQMNSLKPEDTAVYYCAVALYGNRGYYDVNTYSYWGQGTRVTVSGGGGSGGGGSGGGGSGPPCPPCPAPEFLGGPSVFLFPPKPKDTLMISRTPEVTCVVVDVSQEDPEVQFNWYVDGVEVHNAKTKPREEQFNSTYRVVSVLTVLHQDWLNGKEYKCKVSNKGLPSSIEKTISKAKGQPREPQVYTLPPCQEEMTKNQVSLWCLVKGFYPSDIAVEWESNGQPENNYKTTPPVLDSDGSFFLYSRLTVDKSRWQEGNVFSCSVMHEALHNHYTQKSLSLSLGK
chain 2: EVQLLESGGGLVQPGGSLRLSCAASGFTFGNYDMAWVRQAPGKRPEWVSSIDTGGDITHYADSVKGRFTISRDNAKNTLYLQMNSLRPEDTAVYWCATDEEYALGPNEFDYYGQGTLVTVSSGGGGSGGGGSGGGGSGPPCPPCPAPEFLGGPSVFLFPPKPKDTLMISRTPEVTCVVVDVSQEDPEVQFNWYVDGVEVHNAKTKPREEQFNSTYRVVSVLTVLHQDWLNGKEYKCKVSNKGLPSSIEKTISKAKGQPREPQVCTLPPSQEEMTKNQVSLSCAVKGFYPSDIAVEWESNGQPENNYKTTPPVLDSDGSFFLVSRLTVDKSRWQEGNVFSCSVMHEALHNHYTQKSLSLSLGK
EC50: 2 nM
Max effect/effect 1 µM: 95%

B3: CIgG4F2A1(G4S)2 (Fc fusion)
chain 1: GPPCPPCPAPEFLGGPSVFLFPPKPKDTLMISRTPEVTCVVVDVSQEDPEVQFNWYVDGVEVHNAKTKPREEQFNSTYRVVSVLTVLHQDWLNGKEYKCKVSNKGLPSSIEKTISKAKGQPREPQVYTLPPCQEEMTKNQVSLWCLVKGFYPSDIAVEWESNGQPENNYKTTPPVLDSDGSFFLYSRLTVDKSRWQEGNVFSCSVMHEALHNHYTQKSLSLSLGKGGGGSGGGGSDVQLQESGGGLVQAGGSLKLSCAASGGSLSRYDMGWFRQAPGKEREFVARISWSGDTKYYADAVEGRFAISRDNAQNTVYLQMNSLKPEDTAVYYCAVALYGNRGYYDVNTYSYWGQGTRVTVS
chain 2: GPPCPPCPAPEFLGGPSVFLFPPKPKDTLMISRTPEVTCVVVDVSQEDPEVQFNWYVDGVEVHNAKTKPREEQFNSTYRVVSVLTVLHQDWLNGKEYKCKVSNKGLPSSIEKTISKAKGQPREPQVCTLPPSQEEMTKNQVSLSCAVKGFYPSDIAVEWESNGQPENNYKTTPPVLDSDGSFFLVSRLTVDKSRWQEGNVFSCSVMHEALHNHYTQKSLSLSLGKGGGGSGGGGSEVQLLESGGGLVQPGGSLRLSCAASGFTFGNYDMAWVRQAPGKRPEWVSSIDTGGDITHYADSVKGRFTISRDNAKNTLYLQMNSLRPEDTAVYWCATDEEYALGPNEFDYYGQGTLVTVSS
Max effect/effect 1 µM: 0%

B4: NIgG4F3A1(G4S)1 (Fc fusion)
chain 1: DVQLQESGGGLVQAGGSLKLSCAASRGSLSRWDVAWFRQAPGKERSFVTRISWSGTTSYYADAVKGRFAISRDNAKNTVYLQMNSLKPEDTAVYYCAVALYGNRGYYDVNAHSYWGQGTQVTVSGGGGSGPPCPPCPAPEFLGGPSVFLFPPKPKDTLMISRTPEVTCVVVDVSQEDPEVQFNWYVDGVEVHNAKTKPREEQFNSTYRVVSVLTVLHQDWLNGKEYKCKVSNKGLPSSIEKTISKAKGQPREPQVYTLPPCQEEMTKNQVSLWCLVKGFYPSDIAVEWESNGQPENNYKTTPPVLDSDGSFFLYSRLTVDKSRWQEGNVFSCSVMHEALHNHYTQKSLSLSLGK
chain 2: EVQLLESGGGLVQPGGSLRLSCAASGFTFGNYDMAWVRQAPGKRPEWVSSIDTGGDITHYADSVKGRFTISRDNAKNTLYLQMNSLRPEDTAVYWCATDEEYALGPNEFDYYGQGTLVTVSSGGGGSGPPCPPCPAPEFLGGPSVFLFPPKPKDTLMISRTPEVTCVVVDVSQEDPEVQFNWYVDGVEVHNAKTKPREEQFNSTYRVVSVLTVLHQDWLNGKEYKCKVSNKGLPSSIEKTISKAKGQPREPQVCTLPPSQEEMTKNQVSLSCAVKGFYPSDIAVEWESNGQPENNYKTTPPVLDSDGSFFLVSRLTVDKSRWQEGNVFSCSVMHEALHNHYTQKSLSLSLGK
EC50: 2 nM
Max effect/effect 1 µM: 93%

B5: CIgG4F2A1(G4S)3 (Fc fusion)
chain 1: GPPCPPCPAPEFLGGPSVFLFPPKPKDTLMISRTPEVTCVVVDVSQEDPEVQFNWYVDGVEVHNAKTKPREEQFNSTYRVVSVLTVLHQDWLNGKEYKCKVSNKGLPSSIEKTISKAKGQPREPQVYTLPPCQEEMTKNQVSLWCLVKGFYPSDIAVEWESNGQPENNYKTTPPVLDSDGSFFLYSRLTVDKSRWQEGNVFSCSVMHEALHNHYTQKSLSLSLGKGGGGSGGGGSGGGGSDVQLQESGGGLVQAGGSLKLSCAASGGSLSRYDMGWFRQAPGKEREFVARISWSGDTKYYADAVEGRFAISRDNAQNTVYLQMNSLKPEDTAVYYCAVALYGNRGYYDVNTYSYWGQGTRVTVS
chain 2: GPPCPPCPAPEFLGGPSVFLFPPKPKDTLMISRTPEVTCVVVDVSQEDPEVQFNWYVDGVEVHNAKTKPREEQFNSTYRVVSVLTVLHQDWLNGKEYKCKVSNKGLPSSIEKTISKAKGQPREPQVCTLPPSQEEMTKNQVSLSCAVKGFYPSDIAVEWESNGQPENNYKTTPPVLDSDGSFFLVSRLTVDKSRWQEGNVFSCSVMHEALHNHYTQKSLSLSLGKGGGGSGGGGSGGGGSEVQLLESGGGLVQPGGSLRLSCAASGFTFGNYDMAWVRQAPGKRPEWVSSIDTGGDITHYADSVKGRFTISRDNAKNTLYLQMNSLRPEDTAVYWCATDEEYALGPNEFDYYGQGTLVTVSS
Max effect/effect 1 µM: 2%

B6: NIgG4F3A1(RS) (Fc fusion)
chain 1: DVQLQESGGGLVQAGGSLKLSCAASRGSLSRWDVAWFRQAPGKERSFVTRISWSGTTSYYADAVKGRFAISRDNAKNTVYLQMNSLKPEDTAVYYCAVALYGNRGYYDVNAHSYWGQGTQVTVSRSGPPCPPCPAPEFLGGPSVFLFPPKPKDTLMISRTPEVTCVVVDVSQEDPEVQFNWYVDGVEVHNAKTKPREEQFNSTYRVVSVLTVLHQDWLNGKEYKCKVSNKGLPSSIEKTISKAKGQPREPQVYTLPPCQEEMTKNQVSLWCLVKGFYPSDIAVEWESNGQPENNYKTTPPVLDSDGSFFLYSRLTVDKSRWQEGNVFSCSVMHEALHNHYTQKSLSLSLGK
chain 2: EVQLLESGGGLVQPGGSLRLSCAASGFTFGNYDMAWVRQAPGKRPEWVSSIDTGGDITHYADSVKGRFTISRDNAKNTLYLQMNSLRPEDTAVYWCATDEEYALGPNEFDYYGQGTLVTVSSRSGPPCPPCPAPEFLGGPSVFLFPPKPKDTLMISRTPEVTCVVVDVSQEDPEVQFNWYVDGVEVHNAKTKPREEQFNSTYRVVSVLTVLHQDWLNGKEYKCKVSNKGLPSSIEKTISKAKGQPREPQVCTLPPSQEEMTKNQVSLSCAVKGFYPSDIAVEWESNGQPENNYKTTPPVLDSDGSFFLVSRLTVDKSRWQEGNVFSCSVMHEALHNHYTQKSLSLSLGK
EC50: 2 nM
Max effect/effect 1 µM: 93%

B7: NIgG4F3A1(G4S)2 (Fc fusion)
chain 1: DVQLQESGGGLVQAGGSLKLSCAASRGSLSRWDVAWFRQAPGKERSFVTRISWSGTTSYYADAVKGRFAISRDNAKNTVYLQMNSLKPEDTAVYYCAVALYGNRGYYDVNAHSYWGQGTQVTVSGGGGSGGGGSGPPCPPCPAPEFLGGPSVFLFPPKPKDTLMISRTPEVTCVVVDVSQEDPEVQFNWYVDGVEVHNAKTKPREEQFNSTYRVVSVLTVLHQDWLNGKEYKCKVSNKGLPSSIEKTISKAKGQPREPQVYTLPPCQEEMTKNQVSLWCLVKGFYPSDIAVEWESNGQPENNYKTTPPVLDSDGSFFLYSRLTVDKSRWQEGNVFSCSVMHEALHNHYTQKSLSLSLGK
chain 2: EVQLLESGGGLVQPGGSLRLSCAASGFTFGNYDMAWVRQAPGKRPEWVSSIDTGGDITHYADSVKGRFTISRDNAKNTLYLQMNSLRPEDTAVYWCATDEEYALGPNEFDYYGQGTLVTVSSGGGGSGGGGSGPPCPPCPAPEFLGGPSVFLFPPKPKDTLMISRTPEVTCVVVDVSQEDPEVQFNWYVDGVEVHNAKTKPREEQFNSTYRVVSVLTVLHQDWLNGKEYKCKVSNKGLPSSIEKTISKAKGQPREPQVCTLPPSQEEMTKNQVSLSCAVKGFYPSDIAVEWESNGQPENNYKTTPPVLDSDGSFFLVSRLTVDKSRWQEGNVFSCSVMHEALHNHYTQKSLSLSLGK
EC50: 2 nM
Max effect/effect 1 µM: 95%

B8: CIgG4F2A1(RS) (Fc fusion)
chain 1: GPPCPPCPAPEFLGGPSVFLFPPKPKDTLMISRTPEVTCVVVDVSQEDPEVQFNWYVDGVEVHNAKTKPREEQFNSTYRVVSVLTVLHQDWLNGKEYKCKVSNKGLPSSIEKTISKAKGQPREPQVYTLPPCQEEMTKNQVSLWCLVKGFYPSDIAVEWESNGQPENNYKTTPPVLDSDGSFFLYSRLTVDKSRWQEGNVFSCSVMHEALHNHYTQKSLSLSLGKRSDVQLQESGGGLVQAGGSLKLSCAASGGSLSRYDMGWFRQAPGKEREFVARISWSGDTKYYADAVEGRFAISRDNAQNTVYLQMNSLKPEDTAVYYCAVALYGNRGYYDVNTYSYWGQGTRVTVS
chain 2: GPPCPPCPAPEFLGGPSVFLFPPKPKDTLMISRTPEVTCVVVDVSQEDPEVQFNWYVDGVEVHNAKTKPREEQFNSTYRVVSVLTVLHQDWLNGKEYKCKVSNKGLPSSIEKTISKAKGQPREPQVCTLPPSQEEMTKNQVSLSCAVKGFYPSDIAVEWESNGQPENNYKTTPPVLDSDGSFFLVSRLTVDKSRWQEGNVFSCSVMHEALHNHYTQKSLSLSLGKRSEVQLLESGGGLVQPGGSLRLSCAASGFTFGNYDMAWVRQAPGKRPEWVSSIDTGGDITHYADSVKGRFTISRDNAKNTLYLQMNSLRPEDTAVYWCATDEEYALGPNEFDYYGQGTLVTVSS
Max effect/effect 1 µM: 3%
